Laboratory results: patent US9308238B2, “Compositions and methods for modulating EMT and uses thereof” (Whitehead Institute for Biomedical Research, priority 2010, dated 2016)

Key:
Format in all cases: cell-based, human
HMLE^24+ cells = experiment: Boyden chamber migration assay, HMLE^24+ cells
Protocol: FIGS. 3A-3E. Autocrine Signaling controls migration and mammosphere formation.
(§1) FIGS. 5A-5H. Concomitant stimulation of Wnt and TGF-beta pathways allows HMLE^24+ cells to enter into a mesenchymal and SC-like state. (FIG. 5A) RT-PCR: N-Cadherin, Zeb1 and Zeb2, L32 was loading control, n=3. Prior RNA isolation, HMLE^24+-shGFP or -shSFRP1 (stable knockdown of SFRP1, FIG. 12A) cells were treated for 3 days with daily doses of indicated factors: anti-DKK1 antibody (10 μg/ml), anti-E-Cadherin antibody (1 μg/ml), TGF-beta 1 (5 ng/ml), Wnt5a (250 ng/ml), (FIG. 5B) Brightfield microscopy: images of control, TGF-beta- and iEMT-cocktail treated HMLE^24+ cells after 14 days of treatment as indicated (see also FIG. 12D). (FIG. 5C) RT-PCR: Zeb1, Zeb2, E-Cadherin and N-Cadherin, L32 was loading control, n=3. After 14 day treatment, cells were expanded in absence of further stimulation for 4 passages. Shown are PBS-treated control HMLE^24+-shGFP and HMLE^24+-shSFRP1 cells, two HMLE^24+-shGFP cultures treated with TGF-beta 1 (TGF-β-a and -b), two HMLE^24+-shSFRP1 cultures treated with the iEMT-cocktail (iEMT-a and -b). (FIG. 5D) Immunoblot: EMT markers and associated autocrine pathways, cells generated as described in (C). (FIG. 5E) Migration (Boyden Chamber Assay) and Mammosphere Assay: cells generated as indicated in (C), *control vs. TGF-beta treatment, p<1×10^−4, **control vs. iEMT-treatment, p<1×10^−9, n(migration)=3, n(mammospheres)/1000 cells, n=7. (FIG. 5F) Flow cytometry: CD44 and CD24 cell-surface marker expression in control, TGF-beta-a and iEMT-a cells generated as described in (C). (FIG. 5G) Lung metastasis: cells expanded for 8 passages after cessation of treatment as described in (C) were transformed with RAS; 1.0×10^5 cells were injected into the mammary fat pads of mice; GFP-labeled metastases on the surface of the lungs were quantified; *control vs. all other groups, p<0.05, n=5 mice/group. […]

MSP-RAS cells [1] = experiment: Boyden chamber migration assay, MSP-RAS cells; details: SFRP1 1 μg/ml, BMP4 0.5 μg/ml
Protocol: (§2) FIGS. 4A-4G. Autocrine Signaling controls tumorigenicity and metastasis of MSP-RAS cells. (FIG. 4A) Migration assay: RAS-transformed MSP (MSP-RAS) were seeded in Boyden Chamber migration assays and recombinant SFRP1 (1 μg/ml) and BMP4 protein (0.5 μg/ml) were added; *control vs. single treatment, p<1×10^−8, **single vs. double treatment with SFRP1 and BMP4 (S+B), p<1×10^−4, n=3. […] (FIG. 4E) Lung metastasis: fluorescence microscopy images of the major left lung lobe showing GFP-expressing metastatic nodules and quantification of the number of lung surface metastases; *control vs. SFRP1 treatment, p<0.05, **SFRP1 vs. BMP4 or double treatment (S+B), p<0.05, n=5 mice/group. (FIG. 4F) Liver metastasis: fluorescence microscopy images of the liver surface showing GFP-expressing micro-metastatic nodules after implantation of cells as described in (D) and quantification: 5 fields of liver surface were counted per mouse, *control vs. single treatment, p<0.05, **single vs. double treatment (S+B), p<0.05, n=5 mice/group. […]

MSP-RAS cells [2] = experiment: Tumorsphere assay, MSP-RAS cells; details: for reduction of primary tumorsphere formation: SFRP1 1 μg/ml, BMP4 0.5 μg/ml daily during primary sphere formation; for reduction of secondary tumorsphere formation: treated during primary sphere formation only
Protocol: FIGS. 4A-4G. Autocrine Signaling controls tumorigenicity and metastasis of MSP-RAS cells. (FIG. 4A) Migration assay: RAS-transformed MSP (MSP-RAS) were seeded in Boyden Chamber migration assays and recombinant SFRP1 (1 μg/ml) and BMP4 protein (0.5 μg/ml) were added; *control vs. single treatment, p<1×10^−8, **single vs. double treatment with SFRP1 and BMP4 (S+B), p<1×10^−4, n=3. (FIG. 4B) Tumorsphere assay: SFRP1 (1 μg/ml) and BMP4 protein (0.5 μg/ml) were added daily during primary sphere formation (5 days), spheres were dispersed and seeded for secondary sphere formation in the absence of further treatment; #control primary vs. secondary sphere formation, p=0.001; *control vs. single treatment, p<1×10^−4, **single vs. double treatment with SFRP1 and BMP4 (S+B), p<0.01, n(tumorspheres)/1000 cells, n=6. (FIG. 4C) Flow cytometry: CD44 and CD24 cell-surface markers of dissociated primary tumorspheres as described in (B). (FIG. 4D) Orthotopic tumor formation after ex vivo treatment during tumorsphere formation: primary tumorspheres as generated in (B) were pooled, dissociated and 1.0×10^5 cells were implanted in the fat pads of mice; shown are tumor weight and incidence, *indicates absence of tumor, n=5 mice/group. (FIG. 4E) Lung metastasis: fluorescence microscopy images of the major left lung lobe showing GFP-expressing metastatic nodules and quantification of the number of lung surface metastases; *control vs. SFRP1 treatment, p<0.05, **SFRP1 vs. BMP4 or double treatment (S+B), p<0.05, n=5 mice/group. (FIG. 4F) Liver metastasis: fluorescence microscopy images of the liver surface showing GFP-expressing micro-metastatic nodules after implantation of cells as described in (D) and quantification: 5 fields of liver surface were counted per mouse, *control vs. single treatment, p<0.05, **single vs. double treatment (S+B), p<0.05, n=5 mice/group. (FIG. 4G) Tumorigenicity assay: MSP-RAS cells suspended in PBS containing SFRP1 (1 μg/ml), BMP4 (0.5 μg/ml), and a combination of both (S+B) were implanted subcutaneously in mice at indicated cell numbers. In addition, 20 μl of PBS or PBS with proteins at indicated doses was injected peri-tumorally at 1, 2, 3 and 7 days after implanting the MSP-RAS cells.
Mammosphere and tumorsphere assay. Assays were performed as previously described with modifications (Dontu et al., 2003): 1000 cells/well were seeded in 96-well ultra-low adhesion plates (Corning) in MEGM medium containing 1.3% methylcellulose (Stem Cell Technologies) supplemented with 20 ng/ml EGF, 10 ng/ml bFGF (both Sigma) and B27 (Gibco). Primary spheres were dissociated by trypsinization and replated for secondary sphere formation after a period of 5-7 days.

[3] = system: MSP-RAS primary tumorspheres; experiment: Flow cytometry of CD44/CD24 in MSP-RAS primary tumorspheres; details: control tumorspheres 6.4%
Protocol: as §2
Fluorescent activated cell sorting (FACS) and flow cytometry. […] Samples were sorted on a BD FACSAria SORP and analyzed on a BD LSRII using BD FACSDiva Software (BD Biosciences).

HMLE-iEMT-a cells = experiment: Mammosphere assay, iEMT-cells; details: SFRP1 1 μg/ml/d, BMP4 0.5 μg/ml/d; extent comparable to HTwist and MSP cells
Protocol: as §1, with “(FIG. 5D) Immunoblot: EMT markers and associated autocrine pathways, cells generated as described in (C). (FIG. 5E) Migration (Boyden Chamber Assay) and Mammosphere Assay: cells generated as indicated in (C), *control vs. TGF-beta treatment, p<1×10^−4, **control vs. iEMT-treatment, p<1×10^−9, n(migration)=3, n(mammospheres)/1000 cells, n=7. (FIG. 5F) Flow cytometry: CD44 and CD24 cell-surface marker expression in control, TGF-beta-a and iEMT-a cells generated as described in (C).” left out

Molecule	increase in ability to migrate vs untreated control cells (HMLE^24+ cells; after 14 day treatment)	decrease of motility in vitro (MSP-RAS cells [1]) [fold]	reduction of primary tumorsphere formation (MSP-RAS cells [2]) [%]	reduction of secondary tumorsphere formation (MSP-RAS cells [2]) [%]	CD24-positive cells in primary tumorspheres [3] [%]	effect on mammosphere formation of iEMT-cells (HMLE-iEMT-a cells)	motility of HMLE^24+ cells upon addition of protein (HMLE^24+ cells; 0.5 μg/ml in growth medium)
TGF-beta 1: recombinant TGF-beta 1 protein, used at 5 ng/ml	not in motility	–	–	–	–	–	–
BMP4: Recombinant BMP4 protein obtained from Stemgent (protein, UniProt P12644 293-408, looked up) Bone morphogenetic protein 4: SPKHHSQRARKKNKNCRRHSLYVDFSDVGWNDWIVAPPGYQAFYCHGDCPFPLADHLNSTNHAIVQTLVNSVNSSIPKACCVPTELSAISMLYLDEYDKVVLKNYQEMVVEGCGCR	–	4	40	40	40	inhibited	–
SFRP1: Recombinant human SFRP1 protein (R&D Systems), secreted decoy receptor binding canonical and non-canonical Wnt ligands (protein, UniProt Q8N474 32-314, looked up) Secreted frizzled-related …: SEYDYVSFQSDIGPYQSGRFYTKPPQCVDIPADLRLCHNVGYKKMVLPNLLEHETMAEVKQQASSWVPLLNKNCHAGTQVFLCSLFAPVCLDRPIYPCRWLCEAVRDSCEPVMQFFGFYWPEMLKCDKFPEGDVCIAMTPPNATEASKPQGTTVCPPCDNELKSEAIIEHLCASEFALRMKIKEVKKENGDKKIVPKKKKPLKLGPIKKKDLKKLVLYLKNGADCPCHQLDNLSHHFLIMGRKVKSQYLLTAIHKWDKKNKEFKNFMKKMKNHECPTFQSVFK	–	9	40	40	40	inhibited	not further reduced
